Experimental data taken from publication PMC6803640, “Oligomeric state, hydrodynamic properties and target recognition of human Calcium and Integrin Binding protein 2 (CIB2)” (Scientific Reports, 2019).
“And” between values parts separate entries of the source, which are not always exact repeats. Equal values may be shown once. “Also recorded” adds a separate entry of the source.

Experiments:
human CIB2 = biological target: T1, human CIB2 (Homo sapiens, UniProt O75838); experiment: SPR CIB2 dimerization; type: binding; conditions: amine-coupled CIB2 (130 RU and 226 RU), CIB2 92 nM – 46 μM injected; Ca^2+ and Mg^2+
T1 construct: made in house
T1 sequence (O75838 1-187): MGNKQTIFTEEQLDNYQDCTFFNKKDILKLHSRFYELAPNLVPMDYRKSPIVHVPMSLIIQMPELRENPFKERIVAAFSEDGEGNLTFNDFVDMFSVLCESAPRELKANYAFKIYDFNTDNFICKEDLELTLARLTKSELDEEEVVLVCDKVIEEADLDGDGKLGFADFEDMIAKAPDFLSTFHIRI
Excerpt: SPR is a powerful and versatile technique to detect at real time biomolecular interactions, and it can be applied to study protein oligomerization, in particular dimerization, when care is taken to immobilize on the surface of a sensor chip low amounts of proteins under controlled conditions[27]–[29]. Two independent experiments were run following low levels of amine-coupling of CIB2 (130 RU and 226 RU, respectively) on the surface of a sensor chip. […]
by summing the volume of each residue and correcting the final volume for electrostriction as explained in Ref.4, therefore the specific volume for Rec, CaM and CIB2 were 0.712, 0.694 and 0.715 cm3/g respectively. The molecular weight used for the estimation of hydrodynamic diameter was calculated based on the effective protein sequence of each pdb file using Protein Calculator 3.4 (http://protcalc.sourceforge.net/).
Surface plasmon resonance analysis
A SensiQ Pioneer surface plasmon resonance instrument (FortéBio Pall) was employed for the investigation of the CIB2 dimerization and for the real-time monitoring of its interaction with selected peptides. For studies of on-chip CIB2 dimerization, HBS buffer (20 mM HEPES, pH 7.5, 150 mM KCl, 1 mM MgCl2, 50 µM EDTA, 0.005% Tween 20), was used both as immobilization and running buffer, with the addition of fresh 1 mM DTT just before each experiment. […]

Trypsin = experiment: Limited proteolysis of CIB2 with trypsin; conditions: 30 min, 25 °C, 25 µM CIB2, trypsin 1:100, SDS-PAGE
Description: Figure 5 CIB2 limited proteolysis. (A) 10 µM CIB2 was incubated at 25 °C in the presence of 1 mM EDTA (Apo), 500 µM EGTA + 1 mM Mg^2+ (Mg^2+) and 1 mM Mg^2+ + 2 mM Ca^2+ for 10 minutes at 25 °C. Samples were boiled and loaded in a 18% SDS polyacrylamide gel. (B) Limited proteolysis was performed incubating trypsin with 25 µM CIB2 in the same concentrations of ions used for (A) (protein:enzyme ratio was 100:1). Samples were collected at different times, boiled and loaded on a 18% SDS-PAGE. Both gels run for 45–50 min, then they were Coomassie Blue-stained. The figure results from two separate gels, which have been reported in full length in Fig. S6.
Limited proteolysis experiments were performed incubating 25 µM CIB2 in the presence of Trypsin (Sigma) in a ratio 1:100 enzyme:CIB2 at 25 °C. Three conditions were tested: 1 mM EDTA, 500 µM EGTA + 1 mM Mg^2+ and 1 mM Mg^2+ + 2 mM Ca^2+. Time-resolved proteolysis patterns are reported in Supplementary Materials (Fig. S2), results shown in Fig. 5 refer to reactions stopped after 5 min and 30 min. Proteolysis products were loaded on a 15% or 18% SDS gel, as indicated.
His-tagged proteins, and then blocked via amine coupling as explained above. Preparation of the […]
approximately 2250 RU of CIB2 immobilized. […]

[1] = cited from earlier work
Excerpt: Moreover, DLS experiments performed with the samples collected immediately after elution from the SEC column measured a relatively high hydrodynamic diameter (d^Mg = 8.43 nm and d^Ca = 8.18 nm), which was also interpreted as an evidence of a dimeric protein[8]. […] This shoulder (here denominated A1) was collected together with the main peak (A2) in our previous work[8]. In contrast, the two fractions were separately collected and analyzed in the present study.

B1: CIB2: Recombinant human CIB2, Ca^2+ and Mg^2+-binding protein (protein)
chain: T1 sequence (O75838 1-187)
modifications: left off: His tag, end not stated, cleaved
- dimerization signal by SPR (human CIB2): sensorgrams, except for some non-specific bulk effect; also recorded: In no case was a signal detected; also recorded: SPR did not detect dimerization
- native band after trypsin (Trypsin; 1 mM EDTA (apo)): completely lost
- native band after trypsin (Trypsin; 1 mM Mg^2+ or 1 mM Mg^2+ + 2 mM Ca^2+): permitted the detection of the native CIB2 band even after 30 min
- hydrodynamic diameter d^Ca ([1]; Ca^2+, collected immediately after SEC): 8.18 nm
- hydrodynamic diameter d^Mg ([1]; Mg^2+, A1 and A2 collected in one sample): 8.43 nm and 8.4 nm
